Results as given in patent US20220332804A1 (CSL INNOVATION, published 2022).
Substitutions are numbered along the chain they refer to.

Assays:
Test in all cases: SPR, mAb captured, C2 mutant analyte;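 note: Anti-C2 mAbs captured on goat anti-human IgG Biacore CM5 chips, alanine or serine C2 surface mutants flowed over at 37 °C, double-referenced sensorgrams fitted to a 1:1 binding model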
[1] = target: T1, human C2 L453A (human, UniProt P06681 21-752)
T1 sequence: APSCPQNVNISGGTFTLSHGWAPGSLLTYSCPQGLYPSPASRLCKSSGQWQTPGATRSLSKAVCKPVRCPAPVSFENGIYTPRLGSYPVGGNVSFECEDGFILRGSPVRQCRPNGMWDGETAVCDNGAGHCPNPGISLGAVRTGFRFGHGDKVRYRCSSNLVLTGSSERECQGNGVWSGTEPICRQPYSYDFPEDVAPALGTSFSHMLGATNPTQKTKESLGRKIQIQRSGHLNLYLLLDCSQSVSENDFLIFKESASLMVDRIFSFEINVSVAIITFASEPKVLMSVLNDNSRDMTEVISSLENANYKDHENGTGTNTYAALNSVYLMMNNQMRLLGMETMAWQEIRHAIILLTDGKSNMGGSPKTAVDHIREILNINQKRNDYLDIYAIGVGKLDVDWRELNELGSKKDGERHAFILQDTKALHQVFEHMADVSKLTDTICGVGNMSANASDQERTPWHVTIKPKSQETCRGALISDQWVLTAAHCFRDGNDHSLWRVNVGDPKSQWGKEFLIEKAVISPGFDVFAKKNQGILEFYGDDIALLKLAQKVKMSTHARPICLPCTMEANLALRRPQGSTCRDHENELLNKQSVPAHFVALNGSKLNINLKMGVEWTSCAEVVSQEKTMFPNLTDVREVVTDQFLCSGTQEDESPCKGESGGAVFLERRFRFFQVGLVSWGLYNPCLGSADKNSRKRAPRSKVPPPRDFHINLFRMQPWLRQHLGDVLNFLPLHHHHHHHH

[2] = target: T2, human C2 G432A (human, UniProt P06681 21-752)
T2 sequence: T1 sequence with G412A, A433L

[3] = target: T3, human C2 W420A (human, UniProt P06681 21-752)
T3 sequence: T1 sequence with W400A, A433L

[4] = target: T4, human C2 H451A (human, UniProt P06681 21-752)
T4 sequence: T1 sequence with H431A, A433L

B1: RF16-214 (antibody, V domains shown)
VH: EVQLLESGGGLVQPGGSLRLSCAASGFTFSWYQMMWVRQAPGKGLEWVSRIYPSGGGTAYADSVKGRFTISRDNSKNTLYLQMNSLRAEDTAVYYCARDAGYGDNWGQGTLVTVSS
VL: QSALTQPPSVSVSPGQTASITCSGDKLGEKYASWYQQKAGQSPVMVIYQDRKRPSGIPERFSGSNSGNTATLTISGTQAMDEADYYCQAWDTRAVVFGGGTKLTVLG
Kd [1]: 1410 nM | Kd [2]: 26 nM | Kd [3]: 34.9 nM | Kd [4]: 138 nM
